B1: ScENT1 (FUN26) (Saccharomyces cerevisiae S288C) (protein)
chain: MSTSADTDTIKKPILAVPEPALADTHSEEISRSGEEHESENNEHSDEEGDNYSEREQSVSTEPLDTLPLRKKLKNLSYITFFAIGIGLLWPWNCILSASQYFKHDIFKDTSIWAKIFTSSMMSFSTISSMLFNIYLAKRQYKYSRRVINGLVWEIIVFTVMCFFTILHFLLPKWFNFMFIMMLVVISSMGTAMTQNGIMAIANVFGSEYSQGVMVGQAVAGVLPSLVLFALAFIENSSVSTTGGILLYFFTTTLVVTICVVMFSVSKISRKVNENWNVEDGHITDVLLGSLRSNEEEIRIVGRIDQMEDEDHRRTNGTRDDNDEGEELQLKVPFEVLFAKLKYLVLSIFTTFVVTLVFPVFASATYVTGLPLSNAQYIPLIFTLWNLGDLYGRVIADWPMFRDQKFTPRKTFIYSLLRVAAIPLFLMFTAITSSSSGDEEHNGSVIVDLCYMLLQFLFGVTNGHVISMSFMKVPEQLDNDDEKEAAGGFTNIFVSTGLALGSIISYVFVFIIDFIIR
notes: full-length, poly-His tagged (TALON, SEC), overexpressed in S. cerevisiae W303-delta-pep4, DDM-solubilised, reconstituted in proteoliposomes
B2: ScENT1 (FUN26) (Saccharomyces cerevisiae S288C; L390A) (protein)
chain: MSTSADTDTIKKPILAVPEPALADTHSEEISRSGEEHESENNEHSDEEGDNYSEREQSVSTEPLDTLPLRKKLKNLSYITFFAIGIGLLWPWNCILSASQYFKHDIFKDTSIWAKIFTSSMMSFSTISSMLFNIYLAKRQYKYSRRVINGLVWEIIVFTVMCFFTILHFLLPKWFNFMFIMMLVVISSMGTAMTQNGIMAIANVFGSEYSQGVMVGQAVAGVLPSLVLFALAFIENSSVSTTGGILLYFFTTTLVVTICVVMFSVSKISRKVNENWNVEDGHITDVLLGSLRSNEEEIRIVGRIDQMEDEDHRRTNGTRDDNDEGEELQLKVPFEVLFAKLKYLVLSIFTTFVVTLVFPVFASATYVTGLPLSNAQYIPLIFTLWNLGDAYGRVIADWPMFRDQKFTPRKTFIYSLLRVAAIPLFLMFTAITSSSSGDEEHNGSVIVDLCYMLLQFLFGVTNGHVISMSFMKVPEQLDNDDEKEAAGGFTNIFVSTGLALGSIISYVFVFIIDFIIR
notes: as for B1
B3: ScENT1 (FUN26) (Saccharomyces cerevisiae S288C; F249I) (protein)
chain: MSTSADTDTIKKPILAVPEPALADTHSEEISRSGEEHESENNEHSDEEGDNYSEREQSVSTEPLDTLPLRKKLKNLSYITFFAIGIGLLWPWNCILSASQYFKHDIFKDTSIWAKIFTSSMMSFSTISSMLFNIYLAKRQYKYSRRVINGLVWEIIVFTVMCFFTILHFLLPKWFNFMFIMMLVVISSMGTAMTQNGIMAIANVFGSEYSQGVMVGQAVAGVLPSLVLFALAFIENSSVSTTGGILLYIFTTTLVVTICVVMFSVSKISRKVNENWNVEDGHITDVLLGSLRSNEEEIRIVGRIDQMEDEDHRRTNGTRDDNDEGEELQLKVPFEVLFAKLKYLVLSIFTTFVVTLVFPVFASATYVTGLPLSNAQYIPLIFTLWNLGDLYGRVIADWPMFRDQKFTPRKTFIYSLLRVAAIPLFLMFTAITSSSSGDEEHNGSVIVDLCYMLLQFLFGVTNGHVISMSFMKVPEQLDNDDEKEAAGGFTNIFVSTGLALGSIISYVFVFIIDFIIR
notes: as for B1

Key:
Assay in all cases: purified protein
[1] = substrate: O=c1ccn([C@@H]2O[C@H](CO)[C@@H](O)[C@H]2O)c(=O)[nH]1; assay type: biochemical, Saccharomyces cerevisiae; details: labelled compound; purified transporter in proteoliposomes
[2] = substrate: Nc1ccn([C@@H]2O[C@H](CO)[C@@H](O)[C@H]2O)c(=O)n1; details: labelled compound; purified transporter in proteoliposomes
[3] = substrate: O=c1ccn([C@@H]2O[C@H](COP(=O)(O)OP(=O)(O)OP(=O)(O)O)[C@@H](O)[C@H]2O)c(=O)[nH]1; assay type: biochemical, Saccharomyces cerevisiae; details: labelled compound, purified transporter in proteoliposomes

Protein	Km [1] [µM]	Km [2] [µM]	Km ([3]; extrapolated beyond tested concentrations, not saturated) [µM]	Km [3] [µM]
B1	0.327	0.195	–	–
B2	0.215	–	2.92	–
B3	–	0.452	–	0.13
